Measured values published in publication PMC5928113, “Properties of the ternary complex formed by yeast eIF4E, p20 and mRNA” (Scientific Reports, 2018).

Experiments:
[1] = target: T1, eIF4E/p20 complex (eIF4E/His6x-p20) (Saccharomyces cerevisiae, UniProt P07260); assay: microscale thermophoresis, RED-tris-NTA labelled protein; type: binding; conditions: read-out: Cap-analog / MST
T1 construct: gene CDC33; recombinant complex, untagged eIF4E (pET28a) co-expressed with His6x-p20 (pET3a, tag kept) in E. coli BL21 Rosetta 2 (DE3); with Cap-associated protein CAF20
T1 sequence (P07260 1-213): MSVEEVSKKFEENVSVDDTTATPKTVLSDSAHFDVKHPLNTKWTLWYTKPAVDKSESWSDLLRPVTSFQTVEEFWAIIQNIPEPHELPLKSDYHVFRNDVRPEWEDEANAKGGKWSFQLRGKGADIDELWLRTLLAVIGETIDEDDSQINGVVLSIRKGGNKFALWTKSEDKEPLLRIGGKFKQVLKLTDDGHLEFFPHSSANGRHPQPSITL
T1 sequence (P12962 1-161 partner): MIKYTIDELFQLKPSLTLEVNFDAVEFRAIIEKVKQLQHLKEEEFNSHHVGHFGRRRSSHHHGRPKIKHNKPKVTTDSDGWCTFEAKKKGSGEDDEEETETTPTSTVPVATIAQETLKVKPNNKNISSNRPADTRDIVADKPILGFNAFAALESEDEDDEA
Text: microscale thermophoresis, RED-tris-NTA labelled protein on eIF4E/p20 complex (eIF4E/His6x-p20)

eIF4E (His6x-eIF4E) = target: T2, eIF4E (His6x-eIF4E) (Saccharomyces cerevisiae, UniProt P07260); assay: as above; type: binding; conditions: read-out: Cap-analog / MST
T2 construct: gene CDC33; recombinant, N-terminal His6x tag kept, codon-optimized gene in pET3a, E. coli BL21 Rosetta 2 (DE3)
T2 sequence (P07260 1-213): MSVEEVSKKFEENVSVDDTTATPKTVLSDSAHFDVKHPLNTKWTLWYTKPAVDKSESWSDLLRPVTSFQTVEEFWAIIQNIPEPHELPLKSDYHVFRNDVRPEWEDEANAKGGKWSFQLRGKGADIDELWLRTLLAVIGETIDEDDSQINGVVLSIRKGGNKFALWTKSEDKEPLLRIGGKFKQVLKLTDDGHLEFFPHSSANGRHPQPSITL
Text: microscale thermophoresis, RED-tris-NTA labelled protein on eIF4E (His6x-eIF4E)

[2] = target: T3, His6x-eIF4E (Saccharomyces cerevisiae) (UniProt P07260); assay: MST; conditions: 5' m7GpppG cap (Vaccinia Capping System), Buffer A: 10 mM sodium phosphate pH 7.5, 100 mM NaCl, 2.5 mM MgCl2, 1 mM DTT, 0.05% NP40, MST at 25 C (proteins for capped RNA MST RED-tris-NTA labeled in …)
T3 sequence: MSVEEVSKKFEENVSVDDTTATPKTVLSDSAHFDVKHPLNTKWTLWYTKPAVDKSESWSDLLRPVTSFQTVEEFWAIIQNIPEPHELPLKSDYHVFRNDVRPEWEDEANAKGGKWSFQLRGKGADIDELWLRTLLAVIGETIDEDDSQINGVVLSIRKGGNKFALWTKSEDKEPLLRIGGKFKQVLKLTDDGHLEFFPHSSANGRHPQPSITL

[3] = target: T3, His6x-eIF4E (Saccharomyces cerevisiae); assay: EMSA; conditions: 5' m7GpppG cap (Vaccinia Capping System); Buffer A: 10 mM sodium phosphate pH 7.5, 100 mM NaCl, 2.5 mM MgCl2, 1 mM DTT, 0.05% NP40; MST at 25 C (proteins for capped RNA MST RED-tris-NTA labeled in …)
His6x-eIF4E = target: T4, His6x-eIF4E (Saccharomyces cerevisiae, UniProt P07260 1-213); assay: MST; up to 96 uM protein; Buffer A: 10 mM sodium phosphate pH 7.5, 100 mM NaCl, 2.5 mM MgCl2, 1 mM DTT, 0.05% NP40; MST at 25 C (proteins for capped RNA MST RED-tris-NTA labeled in buffer B: 20 mM HEPES-KOH pH 7.5, 50 mM NaCl, 1 mM DTT); EMSA 1.5% agarose, 1x TBE, temperature not stated; conditions: protein: recombinant; tags: N-terminal His6x; label: 3' FAM
T4 sequence: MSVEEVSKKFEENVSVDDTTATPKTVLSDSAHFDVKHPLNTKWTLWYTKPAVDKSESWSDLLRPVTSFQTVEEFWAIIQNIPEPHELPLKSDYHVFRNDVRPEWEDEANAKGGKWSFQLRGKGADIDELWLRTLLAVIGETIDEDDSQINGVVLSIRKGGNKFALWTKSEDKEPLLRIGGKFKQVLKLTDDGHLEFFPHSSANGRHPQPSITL

`C[n+]1cn([C@@H]2O[C@H](COP(=O)(O)OP(=O)(O)OP(=O)(O)OC[C@H]3O[C@@H](n4cnc5c(=O)[nH]c(N)nc54)[C@H](O)[C@@H]3O)[C@@H](O)[C@H]2O)c2nc(N)[nH]c(=O)c21` [m^7GpppG] was tested, and the Kd [1] was 420 nM and the Kd (eIF4E (His6x-eIF4E)) was 425 nM.

“GGGAACAAAAGCUGGUAAUCAAGAAUUACAAGAAACAAAAAUUCAAGUAAAUAACAGAUAAUAC [capped SSA1 5'UTR RNA, 64 nt]” gave a Kd [2] of 226 nM, a Kd ([2]; no peptide, control of the peptide experiment) of 230 nM and a Kd [3] of 275 nM.

GUAUUACAAGAAACAAAAAUUCAAGUAAAUAACAGAUAAU (ssRNA) [uncapped SSA1 5'UTR RNA, 40 nt]: no binding (His6x-eIF4E).
